Patent CN108822212A (UNIV BEIJING, dated 2018)

Assays:
KIT WT D4-5蛋白 = biological target: T1, KIT WT D4-5蛋白 (human, UniProt P10721 309-519, limits assumed); test: SPR, Biacore T200, 3G2 amine-coupled on CM5, KIT WT D4-5 as analyte (3.125-100 nM)
T1 construct: domain: 第4、5个Ig结构域 (D4-5); Expressed in HEK293 cells by BacMam; also called KIT WT的第4、5个结构域

KIT ITD D4-5蛋白 = biological target: T2, KIT ITD D4-5蛋白 (human, UniProt P10721 309-519); test: SPR, Biacore T200, 3G2 amine-coupled on CM5, KIT ITD D4-5 as analyte (3.125-100 nM)
T2 chain: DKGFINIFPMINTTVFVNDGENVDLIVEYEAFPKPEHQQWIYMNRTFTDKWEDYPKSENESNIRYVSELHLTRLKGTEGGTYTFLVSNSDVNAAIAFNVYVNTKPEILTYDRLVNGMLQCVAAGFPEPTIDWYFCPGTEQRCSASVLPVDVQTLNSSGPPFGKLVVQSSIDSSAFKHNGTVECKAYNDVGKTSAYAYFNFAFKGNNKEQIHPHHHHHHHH

[1] = biological target: 全长KIT WT (Ba/F3稳定细胞系表面) (human) (UniProt P10721); test: cell-based or functional assay
[2] = biological target: 全长KIT ITD (Ba/F3稳定细胞系表面) (human) (UniProt P10721); test: cell-based or functional assay

B1: 单克隆抗体3G2 (antibody, V domains shown)
VH: EVQLQESGPGLVKPSQSLSLTCTVAGYSITSDYAWNWIRQFPGNRLEWVGYISYSGSTSYNPSLKSRISITRDTSQNQFFLQLNSVTTEDTATYYCTRWRYRYTLAMDYWGQGTSVTVSS
VL: DIVLTQSPAITAASLGQKVTITCSASSSISYIHWYQQKSGTSPKPWIYEIYKLASGVPPRFSGSGSGTSYSLTISSMEAEDAAIYYCQQWNYPFTFGSGTKLEIKR
notes: also called 3G2抗体; not shown: hinge and Fc of the mouse hybridoma antibody
Q: How did the Kd (KIT WT D4-5蛋白) turn out when B1 was run?
A: The Kd was 154 nM.

Q: And the Kd (KIT ITD D4-5蛋白)?
A: Its Kd is 17.1 nM.

Q: And the percent apoptosis of KIT WT Ba/F3 cells with 3G2 [1]?
A: Its percent apoptosis of KIT WT Ba/F3 cells with 3G2 is 10.9%.

Q: And the IC50 of cell survival (CCK8) of KIT ITD Ba/F3 cells [2]?
A: Its IC50 of cell survival (CCK8) of KIT ITD Ba/F3 cells is 1.29 nM.

Q: What about the percent of KIT ITD Ba/F3 cells in early apoptosis at 10 nM 3G2 [2] of the same binder?
A: The percent of KIT ITD Ba/F3 cells in early apoptosis at 10 nM 3G2 was 41%.

Q: What about the percent of KIT ITD Ba/F3 cells in late apoptosis at 10 nM 3G2 [2] of the same binder?
A: The percent of KIT ITD Ba/F3 cells in late apoptosis at 10 nM 3G2 was 14.5%.

Q: What about the percent of KIT ITD Ba/F3 cells in programmed apoptosis at 10 nM 3G2 (Annexin V-FITC/7-AAD) [2] of the same binder?
A: The percent of KIT ITD Ba/F3 cells in programmed apoptosis at 10 nM 3G2 (Annexin V-FITC/7-AAD) was 55.5%.
